The source of these data is patent publication US6605443 (LUDWIG INSTITUTE FOR CANCER RESEARCH, dated 2003).

One assay has as its target T1, TβR-II alone (UniProt P37173 23-567, limits assumed).
T1 construct: whole, on cells
Description: co-immunoprecipitation with Flag antiserum of 125I-TGF-β1 affinity-labeled receptors, COS cells. The procedure:
(§1) To obtain insight into the mechanism by which Smad7 exerts its negative role in signaling by TGF-β family members, it was tested whether Smad7, like Smad2 and Smad3 (Zhang et al., *Nature* 383:168–172, 1996; Macías-Silva et al., *Cell* 87:1215–1224, 1996; Nakao et al., 1997), can associate with the TGF-β receptor complex. COS cells transfected with N-terminally Flag-tagged Smad7 in combination with TβR-II (wild-type, WT, or kinase-deficient mutant, KD) and TβR-I (wild-type or kinase deficient mutant) were affinity labeled with ^125I-TGF-β1, and cell lysates were subjected to immunoprecipitation with Flag antiserum against the Flag-epitope in Smad7. Immunoprecipitates were analyzed by SDS-PAGE and FujiX Bio-Imager. Expression of receptors and F-Smad7 after transfection was determined by immunoprecipitation with VPN antibody against TβR-I or DRL antibody against TβR-II on aliquots of cell lysates, and by immunoprecipitation with Flag antibody on lysates [^35S]methionine/cysteine labeled transfected cells. […] In contrast, Smad2 and Smad3 interact stably only with complex of […] (Macías-Silva et al., 1996; Nakao et al., 1997). No interaction was observed between Smad7 and a heteromeric complex of kinase-deficient TβR-II and TβR-I, or with TβR-II alone (FIG. 3). […]

For assay [1], the target named is T2, heteromeric complex of kinase-deficient TβR-II and TβR-I (UniProt P36897 34-503; P37173 23-567).
T2 construct: whole, on cells; also called TβR-II KD with TβR-I
The assay is described as above. The method, then:
as §1

T1 sequence (P37173 23-567 limits assumed): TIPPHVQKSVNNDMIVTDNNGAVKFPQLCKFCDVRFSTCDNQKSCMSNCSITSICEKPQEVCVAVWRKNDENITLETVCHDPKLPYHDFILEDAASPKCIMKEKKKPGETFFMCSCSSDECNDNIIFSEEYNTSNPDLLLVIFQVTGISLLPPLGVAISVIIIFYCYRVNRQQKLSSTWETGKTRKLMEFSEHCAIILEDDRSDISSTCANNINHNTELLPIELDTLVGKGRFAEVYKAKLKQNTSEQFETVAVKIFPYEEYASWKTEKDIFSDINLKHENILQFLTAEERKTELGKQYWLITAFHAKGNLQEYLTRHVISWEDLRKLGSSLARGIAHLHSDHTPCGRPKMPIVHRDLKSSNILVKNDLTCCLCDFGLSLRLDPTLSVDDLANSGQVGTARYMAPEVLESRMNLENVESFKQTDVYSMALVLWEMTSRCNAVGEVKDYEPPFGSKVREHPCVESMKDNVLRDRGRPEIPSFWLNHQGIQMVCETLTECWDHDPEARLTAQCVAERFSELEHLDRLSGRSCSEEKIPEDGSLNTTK
T2 sequence (P36897 34-503 limits assumed, chain 1 of 2): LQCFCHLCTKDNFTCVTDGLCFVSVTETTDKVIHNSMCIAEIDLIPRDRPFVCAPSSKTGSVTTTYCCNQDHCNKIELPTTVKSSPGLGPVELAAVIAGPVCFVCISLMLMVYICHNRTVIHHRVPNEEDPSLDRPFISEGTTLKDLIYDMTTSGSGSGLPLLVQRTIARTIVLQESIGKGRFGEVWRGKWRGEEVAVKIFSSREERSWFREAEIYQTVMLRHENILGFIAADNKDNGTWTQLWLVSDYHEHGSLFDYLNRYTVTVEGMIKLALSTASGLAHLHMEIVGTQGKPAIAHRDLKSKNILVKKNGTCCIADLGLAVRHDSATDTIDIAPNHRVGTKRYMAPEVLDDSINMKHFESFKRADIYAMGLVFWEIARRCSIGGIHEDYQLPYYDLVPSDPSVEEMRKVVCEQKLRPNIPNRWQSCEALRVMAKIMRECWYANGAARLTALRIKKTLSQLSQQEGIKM
T2 sequence (P37173 23-567 K277R limits assumed, chain 2 of 2): as the sequence (P37173 23-567 limits assumed) above, with K255R counted along it

B1: N-terminally Flag-tagged Smad7 (F-Smad7) (other, not shown: small tags and cut ends)
chain: MFRTKRSALVRRLWRSRAPGGEDEEEGVGGGGGGGELRGEGATDGRAYGAGGGGAGRAGCCLGKAVRGAKGHHHPHPPTSGAGAAGGAEADLKALTHSVLKKLKERQLELLLQAVESRGGTRTACLLLPGRLDCRLGPGAPASAQPAQPPSSYSLPLLLCKVFRWPDLRHSSEVKRLCCCESYGKINPELVCCNPHHLSRLCELESPPPPYSRYPMDFLKPTAGCPDAVPSSAETGGTNYLAPGGLSDSQLLLEPGDRSHWCVVAYWEEKTRVGRLYCVQEPSLDIFYDLPQGNGFCLGQLNSDNKSQLVQKVRSKIGCGIQLTREVDGVWVYNRSSYPIFIKSATLDNPDSRTLLVHKVFPGFSIKAFDYEKAYSLQRPNDHEFMQQPWTGFTVQISFVKGWGQCYTRQFISSCPCWLEVIFNSR
notes: Expressed by transfection in COS cells and immunoprecipitated with Flag antibody; also called F-mSmad7; mSmad7
Regarding B1, the binding result (in the assay with TβR-II alone; in assay [1]) was “no binding” each time.
